We go through seven molecules from article PMC9424959, “Single mutations toggle the substrate selectivity of multifunctional Camptotheca secologanic acid synthases” (The Journal of Biological Chemistry, 2022).

The target of series [1] is T1, CYP72A565 (Camptotheca acuminata, UniProt A0A4Y5UJ61, K270T).
T1 construct: full-length ORF, C-terminal His6, in pCWori, expressed in E. coli, purified; kinetics with Camptotheca CPR1 and DLPC
Briefly: Type I difference spectral titration. Format: binding. The settings on record: read-out: Ks/mM. An excerpt:
(§1) Type I difference spectral titration on CYP72A565

For series [2], the target named is T2, CYP72A565 (Camptotheca acuminata, UniProt A0A4Y5UJ61, H131F/H132D).
T2 construct: full-length ORF, C-terminal His6, in pCWori, expressed in E. coli, purified; kinetics with Camptotheca CPR1 and DLPC
Briefly: Type I difference spectral titration. The format is binding. The settings on record: read-out: Ks/mM.
Excerpt: as §1

Series [3] has as its target T3, CYP72A565 (Camptotheca acuminata, UniProt A0A4Y5UJ61, H131F).
T3 construct: full-length ORF, C-terminal His6, in pCWori, expressed in E. coli, purified; kinetics with Camptotheca CPR1 and DLPC
Put plainly: Type I difference spectral titration. Format: binding. The settings on record: read-out: Ks/mM.
Excerpt: as §1

For series [4], the target named is SLS, SLAS common ancestor (node 34) (synthetic construct). Put plainly: Type I difference spectral titration. The format is binding. As to conditions: read-out: Ks/mM. An excerpt:
Type I difference spectral titration on SLS, SLAS common ancestor (node 34)

Series [5] concerns the target T4, CYP72A564 (Camptotheca acuminata, UniProt A0A7G8Z808).
T4 construct: full-length ORF, C-terminal His6, in pCWori, expressed in E. coli, purified; kinetics with Camptotheca CPR1 and DLPC
Briefly: LC-MS of secologanin formed, reconstituted with CPR1. Format: biochemical. The settings on record: 250 uM substrate, 500 uM NADPH, Camptotheca CPR1, DLPC, 100 mM NaPO4 pH 7.5, 30 °C, 120 min.

For series [6], the target named is T5, CYP72A564 (Camptotheca acuminata, UniProt A0A7G8Z808, H131F).
T5 construct: full-length ORF, C-terminal His6, in pCWori, expressed in E. coli, purified; kinetics with Camptotheca CPR1 and DLPC
Put plainly: Type I difference spectral titration. The format is binding. As to conditions: read-out: Ks/mM. From the text: (§2) Type I difference spectral titration on CYP72A564

In series [7] the target is T6, CYP72A564 (Camptotheca acuminata, UniProt A0A7G8Z808, H132D).
T6 construct: full-length ORF, C-terminal His6, in pCWori, expressed in E. coli, purified; kinetics with Camptotheca CPR1 and DLPC
Briefly: Type I difference spectral titration. Format: binding. As to conditions: read-out: Ks/mM.
Excerpt: as §2

Series [8] has as its target T7, CYP72A565 (Camptotheca acuminata, UniProt A0A4Y5UJ61).
T7 construct: full-length ORF, C-terminal His6, in pCWori, expressed in E. coli, purified; kinetics with Camptotheca CPR1 and DLPC
Briefly: LC-MS of secologanin formed, reconstituted with CPR1. The settings on record: 250 uM substrate, 500 uM NADPH, Camptotheca CPR1, DLPC, 100 mM NaPO4 pH 7.5, 30 °C, 120 min. The format is biochemical.

Series [9] deals with T4, CYP72A564. Briefly: LC-MS of secologanic acid formed, reconstituted with CPR1. The format is biochemical. As to conditions: 250 uM substrate, 500 uM NADPH, Camptotheca CPR1, DLPC, 100 mM NaPO4 pH 7.5, 30 °C, 120 min.
Series [10] deals with T7, CYP72A565. The description is as above. Format: biochemical. As to conditions: 250 uM substrate, 500 uM NADPH, Camptotheca CPR1, DLPC, 100 mM NaPO4 pH 7.5, 30 °C, 120 min.
Substrate in series [11]: COC(=O)C1=CO[C@@H](O[C@@H]2O[C@H](CO)[C@@H](O)[C@H](O)[C@H]2O)[C@@H]2[C@@H](C)[C@@H](O)C[C@H]12
Briefly: purified protein. Format: biochemical, Camptotheca acuminata. The settings on record: ~0.8 mM NADPH, Camptotheca CPR1, 60 uM DLPC, 100 mM NaPO4 pH 7.5, 30 °C.

Substrate in series [12]: C[C@@H]1[C@H]2[C@H](O[C@@H]3O[C@H](CO)[C@@H](O)[C@H](O)[C@H]3O)OC=C(C(=O)O)[C@H]2C[C@@H]1O
Put plainly: purified protein. The format is biochemical, Camptotheca acuminata. The settings on record: ~0.8 mM NADPH, Camptotheca CPR1, 60 uM DLPC, 100 mM NaPO4 pH 7.5, 30 °C.

T4 sequence (A0A7G8Z808 entry or part of it): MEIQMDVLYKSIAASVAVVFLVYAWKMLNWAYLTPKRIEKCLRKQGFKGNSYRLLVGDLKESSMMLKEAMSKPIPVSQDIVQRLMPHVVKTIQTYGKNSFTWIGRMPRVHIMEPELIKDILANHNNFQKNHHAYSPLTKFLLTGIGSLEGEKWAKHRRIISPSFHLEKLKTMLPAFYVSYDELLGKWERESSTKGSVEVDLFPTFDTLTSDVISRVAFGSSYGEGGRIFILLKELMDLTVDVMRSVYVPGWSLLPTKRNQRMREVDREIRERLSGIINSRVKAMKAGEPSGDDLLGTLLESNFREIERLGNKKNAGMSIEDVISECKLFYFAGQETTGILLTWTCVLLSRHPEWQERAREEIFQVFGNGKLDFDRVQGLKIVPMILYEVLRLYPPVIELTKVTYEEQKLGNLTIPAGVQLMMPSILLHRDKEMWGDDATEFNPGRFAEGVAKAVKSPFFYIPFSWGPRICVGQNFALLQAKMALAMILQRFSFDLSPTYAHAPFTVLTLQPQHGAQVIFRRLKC
T7 sequence (A0A4Y5UJ61 entry or part of it): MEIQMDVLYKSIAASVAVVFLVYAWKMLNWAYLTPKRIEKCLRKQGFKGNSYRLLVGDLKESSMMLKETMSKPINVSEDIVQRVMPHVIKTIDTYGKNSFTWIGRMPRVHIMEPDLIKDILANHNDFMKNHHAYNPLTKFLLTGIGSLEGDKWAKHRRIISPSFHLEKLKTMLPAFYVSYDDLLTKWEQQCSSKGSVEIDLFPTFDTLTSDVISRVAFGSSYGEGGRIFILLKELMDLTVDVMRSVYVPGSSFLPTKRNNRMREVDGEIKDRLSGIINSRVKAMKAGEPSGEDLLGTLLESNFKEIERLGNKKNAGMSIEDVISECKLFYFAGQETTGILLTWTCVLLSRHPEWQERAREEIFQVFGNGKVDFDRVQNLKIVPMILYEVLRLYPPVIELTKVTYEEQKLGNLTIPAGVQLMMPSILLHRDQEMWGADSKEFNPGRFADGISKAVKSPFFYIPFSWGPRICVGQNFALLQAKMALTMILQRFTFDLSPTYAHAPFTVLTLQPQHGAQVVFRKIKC
T1 sequence (A0A4Y5UJ61 entry or part of it K270T): as the sequence (A0A4Y5UJ61 entry or part of it) above, with K270T counted along it

In the case of `COC(=O)C1=CO[C@@H](O[C@@H]2O[C@H](CO)[C@@H](O)[C@H](O)[C@H]2O)[C@@H]2[C@@H](C)[C@@H](O)C[C@H]12` [loganin], the Kd on CYP72A565 [1] was found to be 1.2 ± 0.084 mM; at CYP72A565 [2] it was 0.345 ± 0.041 mM; on CYP72A565 [3], 0.283 ± 0.013 mM; in series [4], 2.3 ± 1 mM; at CYP72A564 [6] it was 0.0547 ± 0.003 mM; at CYP72A564 [7] it was 1.19 ± 0.048 mM. The “LC-MS of secologanin formed, reconstituted with CPR1” value is “CYP72A564 consistently showed higher SLS and SLAS activity than CYP72A565” on CYP72A564 [5]; “CYP72A564 consistently showed higher SLS and SLAS activity than CYP72A565” at CYP72A565 [8].

Regarding `C[C@@H]1[C@H]2[C@H](O[C@@H]3O[C@H](CO)[C@@H](O)[C@H](O)[C@H]3O)OC=C(C(=O)O)[C@H]2C[C@@H]1O` [loganic acid], the “LC-MS of secologanic acid formed, reconstituted with CPR1” value on CYP72A564 [9] is “CYP72A564 consistently showed higher SLS and SLAS activity than CYP72A565”; at CYP72A565 [10] it was “CYP72A564 consistently showed higher SLS and SLAS activity than CYP72A565”.

B1: CYP72A564 (Camptotheca acuminata; H131F) (protein)
chain: MEIQMDVLYKSIAASVAVVFLVYAWKMLNWAYLTPKRIEKCLRKQGFKGNSYRLLVGDLKESSMMLKEAMSKPIPVSQDIVQRLMPHVVKTIQTYGKNSFTWIGRMPRVHIMEPELIKDILANHNNFQKNFHAYSPLTKFLLTGIGSLEGEKWAKHRRIISPSFHLEKLKTMLPAFYVSYDELLGKWERESSTKGSVEVDLFPTFDTLTSDVISRVAFGSSYGEGGRIFILLKELMDLTVDVMRSVYVPGWSLLPTKRNQRMREVDREIRERLSGIINSRVKAMKAGEPSGDDLLGTLLESNFREIERLGNKKNAGMSIEDVISECKLFYFAGQETTGILLTWTCVLLSRHPEWQERAREEIFQVFGNGKLDFDRVQGLKIVPMILYEVLRLYPPVIELTKVTYEEQKLGNLTIPAGVQLMMPSILLHRDKEMWGDDATEFNPGRFAEGVAKAVKSPFFYIPFSWGPRICVGQNFALLQAKMALAMILQRFSFDLSPTYAHAPFTVLTLQPQHGAQVIFRRLKC
notes: full-length ORF, C-terminal His6, in pCWori, expressed in E. coli, purified; kinetics with Camptotheca CPR1 and DLPC
Take B1: in “purified protein [11]”, the Michaelis constant (Km) came out at 0.05 ± 0.01 mM, the catalytic constant (kcat) worked out at 0.132 ± 0.00333 s⁻¹ and the specificity constant (kcat/Km) was determined as 2480 ± 300 M⁻¹ s⁻¹.

B2: CYP72A564 (Camptotheca acuminata; H132D) (protein)
chain: MEIQMDVLYKSIAASVAVVFLVYAWKMLNWAYLTPKRIEKCLRKQGFKGNSYRLLVGDLKESSMMLKEAMSKPIPVSQDIVQRLMPHVVKTIQTYGKNSFTWIGRMPRVHIMEPELIKDILANHNNFQKNHDAYSPLTKFLLTGIGSLEGEKWAKHRRIISPSFHLEKLKTMLPAFYVSYDELLGKWERESSTKGSVEVDLFPTFDTLTSDVISRVAFGSSYGEGGRIFILLKELMDLTVDVMRSVYVPGWSLLPTKRNQRMREVDREIRERLSGIINSRVKAMKAGEPSGDDLLGTLLESNFREIERLGNKKNAGMSIEDVISECKLFYFAGQETTGILLTWTCVLLSRHPEWQERAREEIFQVFGNGKLDFDRVQGLKIVPMILYEVLRLYPPVIELTKVTYEEQKLGNLTIPAGVQLMMPSILLHRDKEMWGDDATEFNPGRFAEGVAKAVKSPFFYIPFSWGPRICVGQNFALLQAKMALAMILQRFSFDLSPTYAHAPFTVLTLQPQHGAQVIFRRLKC
notes: as for B1
For the molecule B2, in the series “purified protein [11]”, the Michaelis-Menten constant (Km) came out at 1.44 ± 0.06 mM, the kcat is 0.228 ± 0.005 s⁻¹ and the kcat/Km was 158 ± 8.33 M⁻¹ s⁻¹.

B3: CYP72A564 (Camptotheca acuminata; R270T) (protein)
chain: MEIQMDVLYKSIAASVAVVFLVYAWKMLNWAYLTPKRIEKCLRKQGFKGNSYRLLVGDLKESSMMLKEAMSKPIPVSQDIVQRLMPHVVKTIQTYGKNSFTWIGRMPRVHIMEPELIKDILANHNNFQKNHHAYSPLTKFLLTGIGSLEGEKWAKHRRIISPSFHLEKLKTMLPAFYVSYDELLGKWERESSTKGSVEVDLFPTFDTLTSDVISRVAFGSSYGEGGRIFILLKELMDLTVDVMRSVYVPGWSLLPTKRNQRMREVDREITERLSGIINSRVKAMKAGEPSGDDLLGTLLESNFREIERLGNKKNAGMSIEDVISECKLFYFAGQETTGILLTWTCVLLSRHPEWQERAREEIFQVFGNGKLDFDRVQGLKIVPMILYEVLRLYPPVIELTKVTYEEQKLGNLTIPAGVQLMMPSILLHRDKEMWGDDATEFNPGRFAEGVAKAVKSPFFYIPFSWGPRICVGQNFALLQAKMALAMILQRFSFDLSPTYAHAPFTVLTLQPQHGAQVIFRRLKC
notes: as for B1
B3: in the series “purified protein [12]”, the Michaelis-Menten constant (Km) was 3.54 ± 0.51 mM, the kcat was found to be 0.333 ± 0.0267 s⁻¹ and the kcat/Km is 95 ± 15 M⁻¹ s⁻¹.

B4: CYP72A565 (Camptotheca acuminata; H131F) (protein)
chain: MEIQMDVLYKSIAASVAVVFLVYAWKMLNWAYLTPKRIEKCLRKQGFKGNSYRLLVGDLKESSMMLKETMSKPINVSEDIVQRVMPHVIKTIDTYGKNSFTWIGRMPRVHIMEPDLIKDILANHNDFMKNFHAYNPLTKFLLTGIGSLEGDKWAKHRRIISPSFHLEKLKTMLPAFYVSYDDLLTKWEQQCSSKGSVEIDLFPTFDTLTSDVISRVAFGSSYGEGGRIFILLKELMDLTVDVMRSVYVPGSSFLPTKRNNRMREVDGEIKDRLSGIINSRVKAMKAGEPSGEDLLGTLLESNFKEIERLGNKKNAGMSIEDVISECKLFYFAGQETTGILLTWTCVLLSRHPEWQERAREEIFQVFGNGKVDFDRVQNLKIVPMILYEVLRLYPPVIELTKVTYEEQKLGNLTIPAGVQLMMPSILLHRDQEMWGADSKEFNPGRFADGISKAVKSPFFYIPFSWGPRICVGQNFALLQAKMALTMILQRFTFDLSPTYAHAPFTVLTLQPQHGAQVVFRKIKC
notes: as for B1
Take B4: in “purified protein [11]”, the Km was determined as 0.29 ± 0.08 mM, the kcat turned out to be 0.128 ± 0.01 s⁻¹ and the kcat/Km worked out at 445 ± 130 M⁻¹ s⁻¹.

B5: CYP72A565 (Camptotheca acuminata; H131F/H132D) (protein)
chain: MEIQMDVLYKSIAASVAVVFLVYAWKMLNWAYLTPKRIEKCLRKQGFKGNSYRLLVGDLKESSMMLKETMSKPINVSEDIVQRVMPHVIKTIDTYGKNSFTWIGRMPRVHIMEPDLIKDILANHNDFMKNFDAYNPLTKFLLTGIGSLEGDKWAKHRRIISPSFHLEKLKTMLPAFYVSYDDLLTKWEQQCSSKGSVEIDLFPTFDTLTSDVISRVAFGSSYGEGGRIFILLKELMDLTVDVMRSVYVPGSSFLPTKRNNRMREVDGEIKDRLSGIINSRVKAMKAGEPSGEDLLGTLLESNFKEIERLGNKKNAGMSIEDVISECKLFYFAGQETTGILLTWTCVLLSRHPEWQERAREEIFQVFGNGKVDFDRVQNLKIVPMILYEVLRLYPPVIELTKVTYEEQKLGNLTIPAGVQLMMPSILLHRDQEMWGADSKEFNPGRFADGISKAVKSPFFYIPFSWGPRICVGQNFALLQAKMALTMILQRFTFDLSPTYAHAPFTVLTLQPQHGAQVVFRKIKC
notes: as for B1
Turning to B5, in the series “purified protein [11]”, the Km was found to be 1.71 ± 0.10 mM, the kcat was determined as 0.53 ± 0.0233 s⁻¹ and the kcat/Km amounted to 280 ± 18.3 M⁻¹ s⁻¹.

In general, Km refers to the substrate concentration at which the rate is half of its maximum. Broadly, the kcat is the maximal rate divided by the concentration of active sites. One may read the kcat/Km as the turnover number divided by the Michaelis constant.
